# According to patent publication US20220153832A1 (PIONYR IMMUNOTHERAPEUTICS, published 2022):
# Assays:
# hVar3 (RG3036) = biological target: T1, hVar3 (RG3036) (human, UniProt Q9UEW3 147-520); test: ELISA on recombinant hVar3 protein, A450
# T1 construct: Human MARCO His-CLD-SRCR with Q452D, Y472S and K473S (already in the entry); also called recombinant human SRCR MARCO hVar3 protein
# [1] = biological target: T2, Mouse MARCO, full length, on cells (mouse, UniProt Q60754 1-518); test: flow cytometry, 293T (muMARCO)
# T2 construct: whole, on cells; the cell type is named under assay; also called muMARCO; MuMARCO
# T2 sequence (looked up): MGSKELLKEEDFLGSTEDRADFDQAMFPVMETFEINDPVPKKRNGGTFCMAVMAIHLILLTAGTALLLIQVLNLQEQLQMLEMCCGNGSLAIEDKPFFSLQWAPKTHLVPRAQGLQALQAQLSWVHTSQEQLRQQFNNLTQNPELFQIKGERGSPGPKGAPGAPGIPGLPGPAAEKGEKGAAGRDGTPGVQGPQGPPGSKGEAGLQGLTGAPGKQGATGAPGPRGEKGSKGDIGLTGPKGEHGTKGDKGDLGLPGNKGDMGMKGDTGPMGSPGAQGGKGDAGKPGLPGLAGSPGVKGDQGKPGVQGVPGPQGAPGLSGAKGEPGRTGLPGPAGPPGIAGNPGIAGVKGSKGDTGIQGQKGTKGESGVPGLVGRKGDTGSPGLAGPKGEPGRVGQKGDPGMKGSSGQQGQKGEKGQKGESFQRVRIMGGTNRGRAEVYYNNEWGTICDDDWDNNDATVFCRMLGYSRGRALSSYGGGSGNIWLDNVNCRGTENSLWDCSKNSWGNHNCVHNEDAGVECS
# [2] = biological target: T2, Mouse MARCO, full length, on cells; test: competition with AF488 E. coli binding to muMARCO 293T cells, flow cytometry
# [3] = biological target: T3, N-terminal his-tagged mouse MARCO protein, recombinant (mouse, UniProt Q60754 150-518); test: Biacore
# T3 construct: The entry holds the His tag, the CLD and the SRCR domain; also called mMARCO (RG3016); PI-RG-3016
# T3 sequence: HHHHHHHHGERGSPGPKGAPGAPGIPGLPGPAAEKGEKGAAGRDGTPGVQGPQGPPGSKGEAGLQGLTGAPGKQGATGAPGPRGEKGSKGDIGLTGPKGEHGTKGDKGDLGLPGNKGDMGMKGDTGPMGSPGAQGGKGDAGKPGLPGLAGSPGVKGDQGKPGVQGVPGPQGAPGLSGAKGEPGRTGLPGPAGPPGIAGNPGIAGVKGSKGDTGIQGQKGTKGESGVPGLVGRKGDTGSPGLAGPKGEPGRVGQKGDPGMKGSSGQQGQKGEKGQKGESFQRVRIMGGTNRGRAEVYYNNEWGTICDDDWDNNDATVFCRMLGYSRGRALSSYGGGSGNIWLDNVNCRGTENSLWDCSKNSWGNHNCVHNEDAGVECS
# [4] = biological target: T3, N-terminal his-tagged mouse MARCO …; test: ELISA on mMARCO ECD with 2 mM Ca2+, A450-A620
# [5] = biological target: T4, hMARCO(His-CLD-SRCR) (RG3033) (human, UniProt Q9UEW3 147-520); test: ProbeLife Gator study, statement on the loaded antibodies
# T4 construct: also called wild type hMARCO
# T4 sequence: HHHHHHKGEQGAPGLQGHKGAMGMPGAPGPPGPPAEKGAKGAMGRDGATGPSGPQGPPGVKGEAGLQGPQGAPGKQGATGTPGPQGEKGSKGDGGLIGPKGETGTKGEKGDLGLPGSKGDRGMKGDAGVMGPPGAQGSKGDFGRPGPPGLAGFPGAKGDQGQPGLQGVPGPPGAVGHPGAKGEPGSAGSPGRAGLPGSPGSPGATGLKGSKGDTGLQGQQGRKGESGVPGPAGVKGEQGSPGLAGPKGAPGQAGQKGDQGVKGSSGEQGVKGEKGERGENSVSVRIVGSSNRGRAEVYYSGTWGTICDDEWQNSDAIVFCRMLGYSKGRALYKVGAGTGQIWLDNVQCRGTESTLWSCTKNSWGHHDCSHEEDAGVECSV
# How it was run: (§1)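 Antibody pairing on MARCO was assessed by biolayer interferometry on ProbeLife probes. In tandem format, 200 nM His-tagged MARCO was loaded on anti-His probes for 120 s, then a 60 s baseline, a first antibody at 200 nM, then a second antibody at 100-200 nM. In sandwich format, the first antibody (200 nM) was captured on anti-Fc probes for 120 s, followed by 200 nM MARCO and then the second antibody (200 nM), each for 120 s.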
# [6] = biological target: T3, N-terminal his-tagged mouse MARCO …; test: as above
# How it was run: as §1
Binder,binding result (hVar3 (RG3036)),EC50 [1],EC50 [2],Kd [3],EC50 (read off the curve) [4],binding result [5],binding result [6]
"PI-3008-AB (antibody, mouse IgG2a, kappa, V domains shown, Recombinant anti-mouse MARCO antibody with mouse IgG2a Fc, from PI-HX-3016) VH: EVQLVESGGGLVKPGASLKLSCVASGFTFSDDWMNWVRQTPGKAMEWIGDIKYDGSYTNYVPSLKNRLTISRDNAKNTLYLQMTNVRSEDTATYYCTSGGVFDYWGQGVMVTVSS VL: EIVLSQSPTTMAASPGEKVTITCRASSSVSYMHWFQQKSGTSPKPWIYDTSKLASGVPDRFSGSGSGTSYSLTISSMEAEDAATYYCLQRSGYPPTFGAGTKLEVKR",no binding (tested: 20 nM),1.1 nM,1.81 nM,< 0.02 nM,~0.07 nM,–,–
"PI-3035-AB (antibody, mouse IgG2a, kappa, V domains shown, Mouse IgG2a chimera derived from PI-HX-3092; also called HX3092 (A mutation) - mIgG2a) VH: QVQLKESGPGLVQPSQTLSLTCTVSGFSLTSYTLSWVRQPPGKGLEWIGAIWGGDNTDYNSALKSRLSISRDTSKSQVLLKMNSLQTEDTAIYFCTRELGGSFDYWGQGVMVTVSS VL: DIQMTQSPPVLSASVGDRVTLSCKTSQNINKKLDWYQQKHGEAPKLLIYYTNNLQTGIPSRFSGSGSGTDFTLTISTLQPEDVATYYCYQYDSGFTFGAGTKLELKR",binds,–,–,–,–,binds,binds
